In PMC12802937 (Nucleic Acids Research, 2026):
Substitutions are numbered along the chain they refer to.

What was measured:
Settings in all cases: both partners purified
[1] = target: T1, Bre1-LR (Bre1 residues 227–700, LBD and RING domains), 6× histidine tag (budding yeast, UniProt Q07457 227-700); assay: ITC; Lge1-CT (50–60 μM) injected into Bre1-LR (15 μM); 25°C, 20 mM TRIS (pH 7.5), 300 mM sodium chloride
T1 construct: two Bre1 polypeptides form the dimeric coiled-coils of the LBD in the crystal structure; also called WT; source: E. coli BL21 Rosetta (DE3), purified (Ni-NTA, heparin, gel filtration)
T1 sequence (looked up): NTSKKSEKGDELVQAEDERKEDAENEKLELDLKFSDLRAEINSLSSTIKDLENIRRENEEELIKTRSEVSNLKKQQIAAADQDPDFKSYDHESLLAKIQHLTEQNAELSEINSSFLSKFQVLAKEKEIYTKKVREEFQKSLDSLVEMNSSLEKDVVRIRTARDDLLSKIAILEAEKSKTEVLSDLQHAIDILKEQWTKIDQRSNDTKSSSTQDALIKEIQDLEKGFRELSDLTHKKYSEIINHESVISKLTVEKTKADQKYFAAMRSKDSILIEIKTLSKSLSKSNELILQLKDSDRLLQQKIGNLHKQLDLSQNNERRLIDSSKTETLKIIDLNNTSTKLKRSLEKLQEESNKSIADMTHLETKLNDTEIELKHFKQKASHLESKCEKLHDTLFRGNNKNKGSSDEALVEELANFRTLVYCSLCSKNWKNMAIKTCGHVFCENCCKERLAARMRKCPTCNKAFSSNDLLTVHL

[2] = target: T2, Bre1-LR K379A (budding yeast, UniProt Q07457 227-700, K379A); assay: SPR; Lge1-CT immobilised on a CM5 chip, Bre1-LR flown over; Biacore 8K, 25°C, 20 mM HEPES (pH 7.5), 200 mM sodium chloride, 0.02% Tween 20
T2 construct: source: E. coli BL21 Rosetta (DE3), purified (Ni-NTA, heparin, gel filtration)
T2 sequence (looked up): T1 sequence (looked up) with K153A

[3] = target: T3, Bre1-LR A489N (budding yeast, UniProt Q07457 227-700, A489N); assay: as above
T3 construct: source: E. coli BL21 Rosetta (DE3), purified (Ni-NTA, heparin, gel filtration)
T3 sequence (looked up): T1 sequence (looked up) with A263N

[4] = target: T4, Bre1-LR K352E (budding yeast, UniProt Q07457 227-700, K352E); assay: as above
T4 construct: source: E. coli BL21 Rosetta (DE3), purified (Ni-NTA, heparin, gel filtration)
T4 sequence (looked up): T1 sequence (looked up) with K126E

Kd [1]: 2.7 ± 1.7 nM | dH [1]: -38.8 ± 0.6 kcal/mol | stoichiometry N [1]: 0.318 ± 0.002 | Kd [2]: 34 nM | Kd [3]: 41.1 nM | Kd [4]: 76.6 nM
B1: Lge1-CT (Lge1 residues 261–332), intein-chitin binding domain (CBD) tag construct (domain or fragment, budding yeast, UniProt Q02796 261-332, looked up)
chain: KNVKKTNNTESECEKAREVFKESDSIDSALEELNLKINSNELELRLLNNQCDKHALNIQLTQEKLDSLLLMQ
notes: Lge1, budding yeast, residues 261-332; residues 268–331 resolved in the electron density; the intein-CBD tag is named on the protein in the pull-down; also called intein-CBD-fused Lge1-CT; intein-CBD-tagged Lge1-CT; source: E. coli BL21 Rosetta (DE3): cleared cell extract on chitin resin (pull-down); purified (chitin, heparin, gel filtration) for ITC and SPR; co-purified with Bre1-LR for the …
